From publication PMC8618851, “The RNA Directed DNA Methylation (RdDM) Pathway Regulates Anthocyanin Biosynthesis in Crabapple (Malus cv. spp.) Leaves by Methylating the McCOP1 Promoter” come the findings set out here.

For this series, the target named is McDRM2 (Malus cv. spp. (crabapple), UniProt UPI0010AA5BBA 1-600). Kind of series: EMSA; 10x binding buffer, MgCl2, NP-40; 2 uL 10x binding buffer, 1 uL 50% glycerol, 1 uL 100 mM MgCl2, 1 uL 1% NP-40, 2 ug protein, 2 uL 0.1 uM biotin oligo; 25 C, 20 min; 12% native PAGE; pH and salt not given. Conditions: protein: recombinant; tags: MBP (pMAL-C2X); label: 3' biotin. In general terms: Mobility shift assays separate free from complexed probe on a gel.
Chain of McDRM2 (chain, as listed by the source): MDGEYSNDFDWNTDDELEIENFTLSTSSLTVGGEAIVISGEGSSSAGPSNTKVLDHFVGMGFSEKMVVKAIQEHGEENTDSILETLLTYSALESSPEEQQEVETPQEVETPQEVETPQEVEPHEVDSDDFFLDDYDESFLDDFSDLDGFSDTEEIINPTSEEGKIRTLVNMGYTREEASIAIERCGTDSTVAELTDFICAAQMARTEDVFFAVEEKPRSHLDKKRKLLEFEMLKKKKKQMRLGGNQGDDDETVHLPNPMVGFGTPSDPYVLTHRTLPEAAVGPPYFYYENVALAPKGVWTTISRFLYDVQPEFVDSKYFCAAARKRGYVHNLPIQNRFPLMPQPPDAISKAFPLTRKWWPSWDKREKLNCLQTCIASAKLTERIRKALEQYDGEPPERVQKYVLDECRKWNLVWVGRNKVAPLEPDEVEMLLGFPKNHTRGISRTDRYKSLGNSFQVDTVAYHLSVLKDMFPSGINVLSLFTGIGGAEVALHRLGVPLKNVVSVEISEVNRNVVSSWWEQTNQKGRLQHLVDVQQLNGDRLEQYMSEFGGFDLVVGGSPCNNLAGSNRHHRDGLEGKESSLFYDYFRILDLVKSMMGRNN

B1: McCOP1 promoter SINE-site probe (dsDNA)
DNA 1: TTCAACGTATTAACTTTATCGGTTCGGTGGACAATTCC
DNA 2: GGAATTGTCCACCGAACCGATAAAGTTAATACGTTGAA
Turning to B1, the binding result is on record as “no binding”.
